Reference: article PMC7135739
Like-named read-outs stand apart in the source and are kept apart here.

Legend:
Assay in all cases: microtiter plate binding assay
[1] = biological target: Bovine cardiac myosin (bovine) (UniProt Q9BE39)
[2] = biological target: Bovine cardiac myosin (bovine) (UniProt Q9BE39); remark: listed apart in the source
[3] = biological target: Rabbit skeletal muscle myosin (rabbit) (UniProt Q28641)
Chain of UniProt Q28641 (Q28641 whole entry, chain 1 of 3): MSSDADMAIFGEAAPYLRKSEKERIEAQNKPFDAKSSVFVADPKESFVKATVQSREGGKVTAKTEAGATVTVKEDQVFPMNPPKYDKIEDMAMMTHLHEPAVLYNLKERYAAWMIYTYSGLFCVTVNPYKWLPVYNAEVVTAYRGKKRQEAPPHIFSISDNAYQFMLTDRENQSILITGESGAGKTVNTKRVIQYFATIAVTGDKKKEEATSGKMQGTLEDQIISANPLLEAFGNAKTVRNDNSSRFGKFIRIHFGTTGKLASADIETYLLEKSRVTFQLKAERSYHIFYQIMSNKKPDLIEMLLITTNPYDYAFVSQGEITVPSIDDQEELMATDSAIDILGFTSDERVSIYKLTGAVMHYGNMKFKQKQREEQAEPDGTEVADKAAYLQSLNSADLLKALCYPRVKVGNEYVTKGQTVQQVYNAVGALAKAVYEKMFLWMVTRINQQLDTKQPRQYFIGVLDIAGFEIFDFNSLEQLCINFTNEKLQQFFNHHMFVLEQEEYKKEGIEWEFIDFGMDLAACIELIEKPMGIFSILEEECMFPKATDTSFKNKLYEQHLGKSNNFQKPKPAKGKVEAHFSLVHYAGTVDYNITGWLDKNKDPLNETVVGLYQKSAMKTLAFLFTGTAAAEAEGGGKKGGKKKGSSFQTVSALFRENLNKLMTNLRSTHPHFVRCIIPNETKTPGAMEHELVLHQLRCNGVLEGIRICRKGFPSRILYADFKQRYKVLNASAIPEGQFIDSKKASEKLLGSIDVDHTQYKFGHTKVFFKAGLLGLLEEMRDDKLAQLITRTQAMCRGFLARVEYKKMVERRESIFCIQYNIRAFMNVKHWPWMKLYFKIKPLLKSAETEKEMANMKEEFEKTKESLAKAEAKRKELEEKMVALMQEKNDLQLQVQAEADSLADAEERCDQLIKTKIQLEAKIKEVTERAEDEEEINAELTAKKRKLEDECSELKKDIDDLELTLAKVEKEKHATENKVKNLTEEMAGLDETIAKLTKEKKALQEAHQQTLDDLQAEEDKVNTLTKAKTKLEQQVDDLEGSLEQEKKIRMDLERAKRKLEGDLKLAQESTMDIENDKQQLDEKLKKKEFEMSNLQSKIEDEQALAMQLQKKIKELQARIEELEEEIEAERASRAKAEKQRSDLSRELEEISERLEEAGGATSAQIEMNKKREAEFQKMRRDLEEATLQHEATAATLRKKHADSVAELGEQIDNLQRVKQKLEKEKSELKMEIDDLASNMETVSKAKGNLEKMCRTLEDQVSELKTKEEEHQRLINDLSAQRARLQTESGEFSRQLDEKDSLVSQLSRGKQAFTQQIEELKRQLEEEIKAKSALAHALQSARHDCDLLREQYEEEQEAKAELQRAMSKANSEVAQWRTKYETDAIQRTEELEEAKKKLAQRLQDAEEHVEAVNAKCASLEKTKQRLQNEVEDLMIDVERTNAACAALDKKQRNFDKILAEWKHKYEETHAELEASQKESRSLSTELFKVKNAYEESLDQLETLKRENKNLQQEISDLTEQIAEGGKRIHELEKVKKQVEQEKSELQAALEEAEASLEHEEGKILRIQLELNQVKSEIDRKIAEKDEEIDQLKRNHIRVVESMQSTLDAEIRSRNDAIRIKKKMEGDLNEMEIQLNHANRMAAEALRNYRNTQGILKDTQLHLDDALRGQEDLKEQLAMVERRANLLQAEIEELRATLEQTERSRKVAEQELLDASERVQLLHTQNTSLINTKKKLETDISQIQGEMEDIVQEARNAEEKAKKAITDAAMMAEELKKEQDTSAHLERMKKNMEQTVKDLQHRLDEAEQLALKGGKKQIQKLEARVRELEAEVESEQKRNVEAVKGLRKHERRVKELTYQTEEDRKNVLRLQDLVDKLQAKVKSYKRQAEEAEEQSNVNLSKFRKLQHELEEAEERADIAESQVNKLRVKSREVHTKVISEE
Chain of UniProt Q28641 (P02602 2-192, chain 2 of 3, further chain): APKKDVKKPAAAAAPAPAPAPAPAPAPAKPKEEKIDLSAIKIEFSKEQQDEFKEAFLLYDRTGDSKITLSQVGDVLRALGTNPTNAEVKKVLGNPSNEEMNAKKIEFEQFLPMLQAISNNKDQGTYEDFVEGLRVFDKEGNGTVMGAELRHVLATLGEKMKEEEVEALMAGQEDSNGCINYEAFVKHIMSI
Chain of UniProt Q28641 (P02608 2-170, chain 3 of 3, further chain): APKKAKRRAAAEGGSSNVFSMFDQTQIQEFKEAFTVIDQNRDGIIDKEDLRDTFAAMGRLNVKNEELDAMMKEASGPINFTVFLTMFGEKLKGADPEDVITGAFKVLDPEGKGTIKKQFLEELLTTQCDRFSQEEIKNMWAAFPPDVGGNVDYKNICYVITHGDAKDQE

In the case of Human factor Xa (enzyme), the Kd [1] is reported as 21 nM, the Kd [2] is reported as 108 nM and the Kd [3] is reported as 80.4 nM.
